Values of other authors, collected in patent US9919022B2, “Use of angiotensin II (AII) receptor agonists to prevent or reduce hemodialysis-associated skeletal muscle cramps” (priority 2015, dated 2018).
Like-named read-outs stand apart in the source and are kept apart here.

CC[C@H](C)[C@H](NC(=O)[C@H](Cc1ccc(O)cc1)NC(=O)[C@@H](N)C(C)C)C(=O)N[C@@H](Cc1cnc[nH]1)C(=O)N1CCC[C@H]1C(=O)N[C@@H](Cc1ccccc1)C(=O)O [angiotensin IV, Val-Tyr-Ile-His-Pro-Phe]
serum half-lives (serum): less than one

H-Asp-Arg-Val-Tyr-Ile-His-Pro-Phe-OH (H-DRVYIHPF-OH; listed as Homo sapiens) [angiotensin II]
terminal serum half-life (serum): less than 30 minutes

Arg-Val-Tyr-Ile-His-Pro-Phe [Angiotensin III]
serum half-lives (in vivo): less than one
